In PMC2408616, “Modular Organization and Combinatorial Energetics of Proline–Tyrosine Nuclear Localization Signals” (PLoS Biology, 2008):

B1: MBP–Nab2p NLS [S. cerevisiae] / Kap104p [yeast (S. cerevisiae)] (parent complex)
chain 1: DNSQRFTQRGGGAVGKNRRGGRGGNRGGRNNNSTRFNPLAKALGMAGESNM
chain 2: MASTWKPAEDYVLQLATLLQNCMSPNPEIRNNAMEAMENFQLQPEFLNYLCYILIEGESDDVLKQHYSLQDLQNNRATAGMLLKNSMLGGNNLIKSNSHDLGYVKSNIIHGLYNSNNNLVSNVTGIVITTLFSTYYRQHRDDPTGLQMLYQLLELTSNGNEPSIKALSKIMEDSAQFFQLEWSGNTKPMEALLDSFFRFISNPNFSPVIRSESVKCINTVIPLQTQSFIVRLDKFLEIIFQLAQNDENDLVRAQICISFSFLLEFRPDKLVSHLDGIVQFMLHLITTVNEEKVAIEACEFLHAFATSPNIPEHILQPYVKDIVPILLSKMVYNEESIVLLEASNDDDAFLEDKDEDIKPIAPRIVKKKEAGNGEDADDNEDDDDDDDDEDGDVDTQWNLRKCSAATLDVMTNILPHQVMDIAFPFLREHLGSDRWFIREATILALGAMAEGGMKYFNDGLPALIPFLVEQLNDKWAPVRKMTCWTLSRFSPWILQDHTEFLIPVLEPIINTLMDKKKDVQEAAISSVAVFIENADSELVETLFYSQLLTSFDKCLKYYKKKNLIILYDAIGRFAEKCALDETAMQIILPPLIEKWALLSDSDKELWPLLECLSCVASSLGERFMPMAPEVYNRAFRILCHCVELEAKSHQDPTIVVPEKDFIITSLDLIDGLVQGLGAHSQDLLFPQGTKDLTILKIMLECLQDPVHEVRQSCFALLGDIVYFFNSELVIGNLEDFLKLIGTEIMHNDDSDGTPAVINAIWALGLISERIDLNTYIIDMSRIILDLFTTNTQIVDSSVMENLSVTIGKMGLTHPEVFSSGAFANDSNWNKWCLSVNALDDVEEKSSAYMGFLKIINLTSTEVTMSNDTIHKIVTGLSSNVEANVFAQEIYTFLMNHSAQISAINFTPDEISFLQQFTS
B2: MBP–Hrp1p NLS [S. cerevisiae] / Kap104p [yeast (S. cerevisiae)] (parent complex)
chain 1: RDRNDRDRDYNHRSGGNHRRNGRGGRGGYNRRNNGYHPYNR
chain 2: B1 chain 2

Variants of: B1
Assay: ITC; parent: 37 nM

Variant | Kd [nM]
chain 1 R18K, chain 1 R19K, chain 1 R22K, chain 1 R26K, chain 1 R29K | 21
chain 1 R35H | 63
chain 1 F36L | 66
chain 1 F36A | 296

Variants of: B2
Assay: ITC; parent: -10.1

Variant | dG [kcal/mol]
chain 1 R31A | -10
chain 1 R19K, chain 1 R20K, chain 1 R23K, chain 1 R26K | -10
chain 1 R32A | -10.5
chain 1 Y36L | -10
chain 1 R19A, chain 1 Y36A | -9.7
